pKd: −log10 of the molar value. No end group written: not given here.
Tests used:
[1] = biological target: T1, Dm eIF4E (residues 69–248, WT) (Drosophila melanogaster, UniProt P48598); assay: ITC, binding to eIF4E (WT, residues 69–248); conditions: for pKd: VP-ITC, 20 mM Na-phosphate (pH 7.0), 150 mM NaCl, GB1-fused peptides (C+NC 10 μM, C 50 μM, L+NC 100 μM CUP or 200 μM Thor and 4E-T, eIF4G 20 μM) into eIF4E WT 1–20 μM, one-site model, each experiment repeated twice, nb = no binding; for pKd / Molar ratio / TΔS / ΔG / ΔH: 20 °C; for entropic penalty (in words): bipartite regions; for Molar ratio / TΔS / ΔG / ΔH: eIF4E WT (69–248), pH 7.0, nb = no binding
T1 construct: The truncated His6-eIF4E (residues 69–248) that was used in the ITC experiments; His6 (N, cleaved yes); made in house; host or cells: E. coli BL21 Star (DE3)
T1 sequence (P48598 69-248 isoform P48598-2): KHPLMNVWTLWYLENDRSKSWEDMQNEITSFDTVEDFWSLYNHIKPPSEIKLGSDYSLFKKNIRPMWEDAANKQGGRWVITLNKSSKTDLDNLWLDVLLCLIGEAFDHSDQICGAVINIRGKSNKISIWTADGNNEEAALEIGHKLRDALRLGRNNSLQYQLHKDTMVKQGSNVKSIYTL
Experimental: Unless indicated otherwise, all the proteins were expressed in E. coli BL21 Star (DE3) cells (Invitrogen) that were grown in LB medium overnight at 20 °C. The lysis buffers were supplemented with DNaseI (5 μg ml^−1), lysozyme (1 mg ml^−1) and protease inhibitor cocktail (Roche). The truncated His6-eIF4E (residues 69–248) that was used in the ITC experiments and in Figs 2c and 5b was purified in lysis buffer containing 50 mM HEPES (pH 7.2), 300 mM NaCl, 20 mM imidazole and 2 mM β-mercaptoethanol using Ni^2+-affinity chromatography (HisTrap HP 5 ml, GE Healthcare) and eluted with a gradient of 20–500 mM imidazole. After the cleavage of the His6-tag with HRV3C protease (homemade), the protein was further purified using a heparin column (HiTrap Heparin HP 5 ml, GE Healthcare), followed by size exclusion chromatography (Superdex 75 16/60, GE Healthcare) in 20 mM Na-phosphate (pH 7.0), 300 mM NaCl and 2 mM dithiothreitol (DTT).
For the ITC measurements and the competition assays shown in Figs 4 and 5d–g, the 4E-BP peptides corresponding to the canonical (C) motifs, the combined (C+NC) motifs or L+NC were expressed with an HRV3C cleavable N-terminal MBP-tag and a non-cleavable C-terminal GB1 domain. The cells were lysed by sonication in lysis buffer containing 50 mM HEPES (pH 7.2), 300 mM NaCl and 2 mM DTT. The proteins were purified from the cleared lysates using amylose resin (New England Biolabs) followed by the cleavage of the MBP tag with HRV3C protease overnight at 4 °C. The proteins were further purified by size exclusion chromatography (Superdex 75 16/60, GE Healthcare) in 20 mM Na-phosphate (pH 7.0), 300 mM NaCl and 2 mM DTT. For the eIF4G fragment (residues 578–650) the MBP was removed after cleavage with TEV protease through an additional anion exchange chromatography (HiTrap Q HP 5 ml, GE Healthcare) before the final gel filtration.
The ITC experiments were performed using a VP-ITC microcalorimeter (MicroCal) at 20 °C. The solution of eIF4E (residues 69–248, WT or mutant: 1–20 μM) in the calorimetric cell was titrated with tenfold concentrated solutions of GB1-stabilized peptides corresponding to 4E-BPs C+NC (10 μM), C (50 μM), L+NC (100 μM CUP, 200 μM Thor and 4E-T) or eIF4G (residues 578–650, 20 μM) that were dissolved in the same buffer (20 mM Na-phosphate (pH 7.0) and 150 mM NaCl). The titration experiments consisted of an initial injection of 2 μl followed by 28 injections of 10 μl at an interval of 240 s. Each binding experiment was repeated twice. The thermodynamic parameters were estimated using a one-site binding model (Origin version 7.0), whereby the datapoint of the first injection was removed for the analysis.
(d) minimal regions for binding to eIF4E (wild-type (WT), residues 69–248). The top panels represent the raw data (μcal sec−1) whereas the bottom panels show the integrated data (kcal mole−1 of injectant) of heat changes that were best-fitted using a one-site binding model. The thermodynamic parameters correspond to heat changes that were detected when 4E-BPs (10 µM) or eIF4G (20 µM) were injected into the calorimetric cell (1.4 mL) containing 1 µM (a,b,c) or 2 µM (d) eIF4E.
Supplementary Figure 4. Thermodynamic parameters for the interaction of eIF4E with 4E-BP peptides. (a–f) ITC profiles for the interaction of eIF4E (WT, residues 69-248) and CUP (a,d), Thor (b,e) and 4E-T (c,f) peptides containing only the canonical motifs (a–c) or the L+NC regions (d–f). The measurements were performed as described in Supplementary
Fig. 3. The solutions contained the peptides corresponding to the canonical motifs (50 µM) or the L+NC regions (100 µM for CUP and 200 µM for Thor and 4E-T). The eIF4E concentration in the calorimetric cell was 5 µM (for the C peptides), 10 µM (for CUP L+NC) and 20 µM (for Thor and 4E-T L+NC peptides).
(1 picture or pasted object on this page, not shown here)

[2] = tested on: endogenous eIF4E and HA-tagged 4E-BPs in S2 cells; assay: Immunofluorescence localization in S2 cells; type: cell-based, Drosophila melanogaster; conditions: −LMB; for localization of endogenous eIF4E (in words): S2 cells overexpressing 4E-BP or mutant; for localization of the 4E-BP (in words): S2 cells, steady-state

Substance | pKd [1] | entropic penalty (in words) ([1]; eIF4E WT) | Molar ratio [1] | TΔS [1] [kcal/mol] | ΔG [1] [kcal/mol] | ΔH [1] [kcal/mol] | affinity of the 4E-T C peptide relative to CUP and Thor C peptides ([1]; eIF4E WT, C motif peptides) | localization of endogenous eIF4E (in words) [2] | localization of the 4E-BP (in words) [2]
CUP C+NC: CUP residues 325–376, eIF4E-binding region short, C-terminal GB1 (KSYTRSRLMDIRNGMFNALMHRSKESFVMPRIATCDDIELEGRLRRMNIWRT-GB1; UniProt Q9VMA3 325-376, looked up, fragment) | 8.04 | highest entropic penalty | 1.05±0.02 | -23.9 | -10.78 | -34.5 ± 0.35 |  |  | 
Thor C+NC: Thor residues 50–83, eIF4E-binding region short, C-terminal GB1 (TKLIYERAFMKNLRGSPLSQTPPSNVPSCLLRGT-GB1; UniProt Q9XZ56 50-83, looked up, fragment) |  | lower entropic penalties |  | -4.9 | -11.87 |  |  |  | 
4E-T C: 4E-T residues 9–21, canonical motif | 7.80 |  | 0.95±0.01 | -8.16 | -10.45 | -18.6 ± 0.7 | approximately one and two orders of magnitude higher than those of the CUP and Thor peptides, respectively | the number of eIF4E-positive P-bodies was reduced | still localized to P-bodies
4E-T C+NC: 4E-T residues 9–44, eIF4E-binding region short, C-terminal GB1 |  | lower entropic penalties |  | -11.7 | -11.11 |  |  | the number of eIF4E-positive P-bodies was reduced | still localized to P-bodies
Thor C: Thor residues 50–63, canonical motif |  |  |  | -2.24 |  |  |  |  | 

From paper PMC4164784, “4E-BPs require non-canonical 4E-binding motifs and a lateral surface of eIF4E to repress translation” (Nature Communications, 2014)
